The record followed here is publication PMC3562352.

Test in all cases: fluorescence anisotropy
In data set [1] the target is T1, MntR wild-type (Bacillus subtilis, UniProt P54512 1-142).
T1 sequence: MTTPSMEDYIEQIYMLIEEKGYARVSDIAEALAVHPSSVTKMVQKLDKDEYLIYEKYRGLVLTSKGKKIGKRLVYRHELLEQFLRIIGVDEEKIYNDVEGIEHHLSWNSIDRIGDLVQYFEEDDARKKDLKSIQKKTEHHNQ

In data set [2] the target is T2, MntR E11K (Bacillus subtilis, UniProt P54512 1-142, E11K).
T2 sequence: T1 sequence with E11K

Data set [3] has as its target T1, MntR wild-type. The source holds these as a separate data set.
For data set [4], the target named is T2, MntR E11K. This is another data set of the same source.

Changes are numbered by the printed parent chain. Where two headings read alike, the source gives them in different places.

B1: mntH operator 21 bp (dsDNA)
DNA 1: GAGTTTCCTTAAGGCAAATTG
DNA 2: CAATTTGCCTTAAGGAAACTC
Turning to B1, the equilibrium dissociation constant (Kd) with MntR wild-type [1] worked out at 5.6 ± 0.8 nM; with MntR E11K [2], 6.5 ± 1.3 nM; with MntR wild-type [3], 6.5 ± 0.5 nM; in the data set with MntR E11K [4], 2.4 ± 0.1 nM.

The term Kd denotes the constant that tells how readily two partners part at equilibrium.
